The record followed here is patent US20180194839A1 (Novartis, published 2018).

Assay [1] deals with T1, human IL-17A (construct not stated) (human, UniProt Q16552 24-155, limits assumed).
T1 construct: also called huIL-17A; human IL-17A biotin
T1 sequence: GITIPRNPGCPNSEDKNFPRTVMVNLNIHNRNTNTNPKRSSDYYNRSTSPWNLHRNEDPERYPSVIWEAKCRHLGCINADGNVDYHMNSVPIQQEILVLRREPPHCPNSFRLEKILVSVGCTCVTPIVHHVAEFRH
The assay can be described thus: competition ELISA: biotinylated huIL-17A pre-incubated with antibody, binding to coated huIL-17RA. (In general: An ELISA detects its analyte on a solid surface through an enzyme-linked reagent.)

In assay [2] the target is T2, recombinant human IL-4 (R&D Systems Cat#204-IL/CF) (human, UniProt P05112 25-153).
T2 construct: also called huIL-4
T2 sequence (looked up): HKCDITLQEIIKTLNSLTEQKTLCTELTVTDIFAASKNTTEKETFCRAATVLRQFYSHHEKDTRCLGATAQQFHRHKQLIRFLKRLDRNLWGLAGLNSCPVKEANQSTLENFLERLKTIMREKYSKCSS
The assay can be described thus: ELISA, coated cytokine, Ab 10 µg/ml.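 Further: antibodies incubated 3 h at room temperature on the coated wells, binding detected with alkaline phosphatase-conjugated anti-IgG secondary antibodies matching the species of each test antibody.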

In assay [3] the target is T3, recombinant human IFNγ (Roche) (human, UniProt P01579 24-166, limits assumed).
T3 construct: also called huIFNγ
T3 sequence (looked up): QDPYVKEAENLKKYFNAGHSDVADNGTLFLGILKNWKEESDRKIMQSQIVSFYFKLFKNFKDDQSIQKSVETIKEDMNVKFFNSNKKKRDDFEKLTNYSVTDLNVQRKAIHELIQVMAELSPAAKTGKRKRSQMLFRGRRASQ
Briefly: ELISA, coated cytokine, Ab 10 µg/ml.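 Further: antibodies incubated 3 h at room temperature on the coated wells, binding detected with alkaline phosphatase-conjugated anti-IgG secondary antibodies matching the species of each test antibody.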

Assay [4] deals with T4, recombinant human IL-8 (R&D Systems Cat#208-IL-010/CF) (human, UniProt P10145 28-99).
T4 construct: also called huIL-8
T4 sequence (looked up): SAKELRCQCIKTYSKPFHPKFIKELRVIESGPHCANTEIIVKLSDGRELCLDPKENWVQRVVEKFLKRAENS
Briefly: ELISA, coated cytokine, Ab 10 µg/ml.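 Further: antibodies incubated 3 h at room temperature on the coated wells, binding detected with alkaline phosphatase-conjugated anti-IgG secondary antibodies matching the species of each test antibody.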

In assay [5] the target is T5, recombinant human EGF (Sigma Cat#E9644) (human, UniProt P01133 971-1023).
T5 construct: also called huEGF
The assay can be described thus: ELISA, coated cytokine, Ab 10 µg/ml.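 Further: antibodies incubated 3 h at room temperature on the coated wells, binding detected with alkaline phosphatase-conjugated anti-IgG secondary antibodies matching the species of each test antibody.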

Assay [6] has as its target T6, recombinant human IL-23 (R&D Systems Cat#1290-IL-010/CF) (human, UniProt Q9NPF7 20-189; P29460 23-328).
T6 construct: also called huIL-23
T6 sequence (looked up) 1: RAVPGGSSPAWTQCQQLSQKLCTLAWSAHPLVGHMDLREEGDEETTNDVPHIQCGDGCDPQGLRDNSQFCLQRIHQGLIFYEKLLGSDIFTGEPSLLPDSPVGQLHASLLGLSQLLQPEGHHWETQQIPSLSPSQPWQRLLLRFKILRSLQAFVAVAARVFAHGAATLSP
T6 sequence (looked up) 2: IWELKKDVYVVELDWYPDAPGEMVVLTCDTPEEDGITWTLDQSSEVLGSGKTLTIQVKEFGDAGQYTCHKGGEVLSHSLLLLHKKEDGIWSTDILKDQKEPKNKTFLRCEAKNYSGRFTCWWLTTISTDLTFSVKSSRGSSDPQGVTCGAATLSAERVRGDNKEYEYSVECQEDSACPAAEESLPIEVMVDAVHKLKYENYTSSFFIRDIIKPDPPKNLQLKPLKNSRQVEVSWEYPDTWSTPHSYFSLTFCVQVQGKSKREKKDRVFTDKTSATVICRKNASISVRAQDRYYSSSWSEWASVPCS
Briefly: ELISA, coated cytokine, Ab 10 µg/ml.

Assay [7] concerns the target T7, recombinant human IL-13 (Novartis) (human, UniProt P35225 35-146, limits assumed).
T7 construct: also called huIL-13
The assay can be described thus: ELISA, coated cytokine, Ab 10 µg/ml.

In assay [8] the target is T8, recombinant human TGFβ2 (Novartis) (human, UniProt P61812 303-414).
T8 construct: also called huTGFβ2
T8 sequence (looked up): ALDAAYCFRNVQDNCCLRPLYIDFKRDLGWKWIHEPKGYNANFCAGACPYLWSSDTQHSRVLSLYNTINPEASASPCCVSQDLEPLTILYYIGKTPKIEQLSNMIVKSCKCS
The assay can be described thus: ELISA, coated cytokine, Ab 10 µg/ml.

Assay [9] has as its target T9, recombinant human IL-6 (R&D Systems Cat#206-IL-1010/CF) (human, UniProt P05231 30-212).
T9 construct: also called huIL-6
The assay can be described thus: ELISA, coated cytokine, Ab 10 µg/ml.

Assay [10] addresses T10, recombinant human IL-3 (R&D Systems Cat#203-IL/CF) (human, UniProt P08700 20-152).
T10 construct: also called huIL-3
T10 sequence (looked up): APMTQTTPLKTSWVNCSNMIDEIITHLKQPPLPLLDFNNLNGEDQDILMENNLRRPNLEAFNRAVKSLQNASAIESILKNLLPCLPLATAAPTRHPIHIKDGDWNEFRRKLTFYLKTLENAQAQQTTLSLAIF
Briefly: ELISA, coated cytokine, Ab 10 µg/ml.

Assay [11] addresses T11, recombinant human IL-17A (SEQ ID NO: 76) (human, UniProt Q16552 24-155, limits assumed).
T11 construct: homodimer; also called huIL-17A; rhuIL-17A
T11 sequence: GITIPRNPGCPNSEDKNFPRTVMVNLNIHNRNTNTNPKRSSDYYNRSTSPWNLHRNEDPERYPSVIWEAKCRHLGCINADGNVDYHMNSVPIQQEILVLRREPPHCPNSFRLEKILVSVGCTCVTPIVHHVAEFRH
Briefly: ELISA, coated cytokine, Ab 10 µg/ml.

The target in assay [12] is T12, recombinant human IL-18 (MBL Cat# B003-5) (human, UniProt Q14116 37-193).
T12 construct: also called huIL-18
T12 sequence (looked up): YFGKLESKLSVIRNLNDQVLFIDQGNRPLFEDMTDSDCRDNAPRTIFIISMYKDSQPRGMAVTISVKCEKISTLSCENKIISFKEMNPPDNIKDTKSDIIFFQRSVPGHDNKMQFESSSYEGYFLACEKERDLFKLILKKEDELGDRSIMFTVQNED
The assay can be described thus: ELISA, coated cytokine, Ab 10 µg/ml.

Assay [13] addresses T13, recombinant human IL-1β (Novartis) (human, UniProt P01584 117-269).
T13 construct: also called huIL1β
The assay can be described thus: ELISA, coated cytokine, Ab 10 µg/ml.

The target in assay [14] is T14, recombinant human IL-12 (R&D Systems Cat#219-IL-005/CF) (human, UniProt P29459 23-219; P29460 23-328).
T14 construct: also called huIL-12
T14 sequence (looked up) 1: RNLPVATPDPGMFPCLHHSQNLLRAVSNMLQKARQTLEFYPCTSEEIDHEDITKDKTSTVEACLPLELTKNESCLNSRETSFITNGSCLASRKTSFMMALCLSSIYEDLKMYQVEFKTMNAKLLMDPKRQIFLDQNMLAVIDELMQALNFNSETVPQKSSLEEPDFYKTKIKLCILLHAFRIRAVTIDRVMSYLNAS
T14 sequence (looked up) 2: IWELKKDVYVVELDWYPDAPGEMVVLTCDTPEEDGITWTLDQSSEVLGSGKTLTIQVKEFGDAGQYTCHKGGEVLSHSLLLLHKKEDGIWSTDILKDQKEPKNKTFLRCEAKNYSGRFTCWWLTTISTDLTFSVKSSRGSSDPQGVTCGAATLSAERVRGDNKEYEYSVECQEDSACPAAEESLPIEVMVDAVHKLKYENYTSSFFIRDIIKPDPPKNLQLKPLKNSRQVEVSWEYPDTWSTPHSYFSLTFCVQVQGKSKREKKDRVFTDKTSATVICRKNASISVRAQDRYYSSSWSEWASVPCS
Briefly: ELISA, coated cytokine, Ab 10 µg/ml.

T5 sequence (P01133 971-1023 limits assumed): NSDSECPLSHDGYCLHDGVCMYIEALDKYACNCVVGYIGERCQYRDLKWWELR
T7 sequence (P35225 35-146 limits assumed): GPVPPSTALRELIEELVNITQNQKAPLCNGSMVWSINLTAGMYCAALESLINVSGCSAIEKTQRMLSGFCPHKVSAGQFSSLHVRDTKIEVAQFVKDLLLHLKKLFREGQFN

B1: XAB4 (antibody, human IgG1, kappa, V domains shown)
VH: EVQLVESGGDLVQPGGSLRLSCAASGFTFSSYWMSWVRQAPGKGLEWVANIKQDGSEKYYVDSVKGRFTISRDNAKNSLYLQMNSLRAEDTAVYYCARDRGSLYYWGQGTLVTVSS
VL: AIQLTQSPSSLSASVGDRVTITCRPSQGINWELAWYQQKPGKAPKLLIYDASSLEQGVPSRFSGSGSGTDFTLTISSLQPEDFATYYCQQFNSYPLTFGGGTKVEIKR
notes: also called MB435 N56Q
The term IC50 denotes the point on the concentration scale where inhibition reaches its midpoint. A low value points to higher potency. In assay [1], B1 came in with an IC50 of 0.321 nM. Also, the O.D. in assay [2] was 0.047 O.D; in [3] it was 0.048 O.D; in assay [4] it was 0.018 O.D; in assay [5], 0.126 O.D; in [6], -0.022 O.D; in assay [7] it was 0.019 O.D. Further, the O.D. is 0.018 O.D in assay [8]; -0.015 O.D in [9]; 0.167 O.D in assay [10]; 3.18 O.D in assay [11]; -0.001 O.D in assay [12]; 0.015 O.D in assay [13]. Also, the O.D. in assay [14] was 0.009 O.D.

B2: XAB1 (antibody, human IgG1, kappa, V domains shown)
VH: EVQLVESGGDLVQPGGSLRLSCAASGFTFSSYWMSWVRQAPGKGLEWVANIKQDGSEKYYVDSVKGRFTISRDNAKNSLYLQMNSLRAEDTAVYYCARDRGSLYYWGQGTLVTVSS
VL: AIQLTQSPSSLSASVGDRVTITCRPSQGIISALAWYQQKPGKAPKLLIYDASSLENGVPSRFSGSGSGTDFTLTISSLQPEDFATYYCQQFNSYPLTFGGGTKVEIKR
notes: human IgG1/kappa monoclonal antibody; also called parental XAB1; XAB1 IgG
Turning to B2, in [1], the IC50 is 0.83 nM. The O.D. in assay [2] was found to be 0.057 O.D; in assay [3] it was 0.059 O.D; in assay [4] it was 0.058 O.D; in assay [5], 0.062 O.D; in assay [6], 0.085 O.D; in assay [7], 0.125 O.D. Besides, the O.D. in assay [8] is 0.146 O.D; in assay [9] it was -0.044 O.D; in [10], -0.049 O.D; in assay [11], 2.75 O.D; in assay [12], -0.086 O.D; in assay [13] it was -0.11 O.D. Also, in assay [14], the O.D. was -0.097 O.D.
